# Measurements from the nanobody polyreactivity screen of Harvey et al. (2022).
# Test: yeast display, Sf9 membrane polyspecificity reagent, FACS + sequencing; frameworks hold sequencing errors
# Outline: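 Using colony PCR, genes from sorted yeast display clones were amplified, then sequenced on MiSeq at 2 × 250 and filtered by CDR length. The clones had been stained with 10% biotinylated, detergent-solubilized Sf9 membrane reagent for 1 hour at 4 °C and sorted by FACS into low and high (top ~1%) gates on anti-HA and streptavidin fluorescence. Polyreactivity labels come from the gate of origin.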
row,Sequence,polyreactivity (PSR sort gate)
1,QVQLVESGGGLVQAGGSLRLSCAASGFIFGWNAMGWYRQAPGKEREFVAAITSSGTSTYYADSVKGRFTISRDNAKNTVYLQMNSLKPEDTAVYYCAADVIFNWLAYSTEYDYWGQGTQVTVSS,low polyreactivity
2,QVQLVESGGGLVQAGGSLRLSCAASGFIFGWNAMGWYRQAPGKERELVAGISRGGRTYYADSVKGRFTISRDNAKNTVYLQMNSLKPEDTAVYYCNKRLYSSSAVDAYGYWGQGTQVTVSS,high polyreactivity
3,QVQLVESGGGLVQAGGSLRLSCAASGFIFGYNAMGWYRQAPGKERELVAAITRSGGRTYYADSVKGRFTISRDNAKNTVYLQMNSLKPEDTSVYYCAASRFATYPRWYDYWGQGTQVTVSS,low polyreactivity
4,QVQLVESGGGLVQAGGSLRLSCAASGFIFGYNAMGWYRQAPGKERELVAAITWIGGTTYYADSVKGRFTISRDNAKNTVYLQMNSLKPEDTAVYYCARQRSYGRSSYSYGYDYWVQGTQVTVSS,high polyreactivity
5,QVQLVESGGGLVQAGGSLRLSCAASGFIFGYYAMGCYTQAPGKERELVARSTSSGGSTYYADSVKGRFTISRDNAKTTVYLQMNSLKPEDTAVYYCAKSPRAPRYMPYGYWGQGSQVTVSS,high polyreactivity
6,QVQLVESGGGLVQAGGSLRLSCAASGFIFGYYAMGWYRQAPGKEREFVAAITKRGGRTYYADSVKGRFTISRDNAKNTVYLQMNSLKPEDTAVYYCNKAIRQDRWVQEEDYWGQGTQVTVSS,high polyreactivity
7,QVQLVESGGGLVQAGGSLRLSCAASGFIFGYYAMGWYRQAPGKERELVAAISGDAGRTYYADSVKGRFTISRDNAKNTVYLQMNSLKPEDTAVYYCADADTYKMDYWGQGTQVTVSS,low polyreactivity
8,QVQLVESGGGLVQAGGSLRLSCAASGFIFGYYAMGWYRQAPGKERELVAAISKIGDSTYYADSVKGRFTISRDNAKNTVYLQMNSLKPEDTAVYYCNKVVRNYPRLYGHWGQGTQVTVSS,high polyreactivity
9,QVQLVESGGGLVQAGGSLRLSCAASGFIFGYYAMGWYRQAPGKERELVAAISSRGGSTYYADSVKGRFTISRDNAKNTVYLQMNSLKPEDTAVYYCAVRRVSFRHKFGQYDYWGQGTQVTVSS,high polyreactivity
10,QVQLVESGGGLVQAGGSLRLSCAASGFIFGYYTMGWYRQAPGKERELVAGISYSGGSTYYADSVKGRFTISRDNAKNTVYLQMNSLKPEDTAVYYCNRADYRASYSGQGSYDYWGQGTQVTVSS,high polyreactivity
11,QVQLVESGGGLVQAGGSLRLSCAASGFIFIAYAMGWYRQAPGKERELVAAISKSGGNTYYADSVKGRFTISRDNAKNTVYLQMNSLKPEDTAVYYCATRPGYWRYEYWGQGTQVTVSS,high polyreactivity
12,QVQLVESGGGLVQAGGSLRLSCAASGFIFIYNAMGWFRQAPGKERELVAAISRTGARTYYADSVKGRFTISRDNAKNTVYLQMNSLKPEDTAVYYCAGGVRTRTEEYDYWGQGTKVTVSS,high polyreactivity
13,QVQLVESGGGLVQAGGSLRLSCAASGFIFIYNVMGWYRPAPGKERELVAAINRGGSTKYADSVKGRFTISRDNAKNTVYLQMNSLKPEDTAVYYCAARYDGSRYHYDGYDYWGQGTQVTVSS,low polyreactivity
14,QVQLVESGGGLVQAGGSLRLSCAASGFIFKAYAMGWYRHAPGKERELVAAITSSGGRTYDADSVKGRFTISRDNAKNTVYLQKNSLKPEDTAVYYCNARGVLRTSLYRYDYWGQGTQVTVSS,high polyreactivity
15,QVQLVESGGGLVQAGGSLRLSCAASGFIFKGYAMGWYRQSPGKERELVAVISTSGDRTYYADSVKGRFTISRDNAKNTVYLQMNSLKPEDTAVYYCAAKASPYGGRQKGYDYWGQGTQVTVSS,high polyreactivity
16,QVQLVESGGGLVQAGGSLRLSCAASGFIFKRYAMGWYRQAPGKERELVAAITSGGSTHYADSVKGRFTISRDNAKNTVYLQMNSLKPEDTAVYYCAAVPRVNWSRYVYFWYDYWGQGTQVTVSS,high polyreactivity
17,QVQLVESGGGLVQAGGSLRLSCAASGFIFKTYAMGWYRQAPGKERELVATITRRGGRTYYADSVKGRFTISRDNAKNTVYLQMNSLKPEDTAVYDCAADYALSSLPFDYWGQGTQVTVSS,high polyreactivity
18,QVQLVESGGGLVQAGGSLRLSCAASGFIFKVNAMGWYRQAPGKERELFAAISRRGVTTYYADSVKGRFTISRDNAKNTVYLQMNSLKPEDTAVYYCNRARSYGDTDKLAILADDYWGQGTKVTVSS,high polyreactivity
19,QVQLVESGGGLVQAGGSLRLSCAASGFIFLGNAMGWYRQAPGKERELVASISRGGSTNYADSVKGRFTISRDNAKNTVYLQMTSLKPEDTAVYYCAADLSDKFGYWGQGTQVTVSS,low polyreactivity
20,QVQLVESGGGLVQAGGSLRLSCAASGFIFLRYGMGWYRKAPGKERELVASIDSTGGSTYADSVKGRFTISRDNAKNTVYLQMNSLKPEDTAVYYCAAAYYIVSERDYWGQGTQVTVSS,low polyreactivity
21,QVQLVESGGGLVQAGGSLRLSCAASGFIFLYNAMGWYRQAPGKERELVATITSGGSTNYADSVKGRFTISRDNAKNTVYLQMNSLKPEDTAVYYCAVRRKAYYSYYYHDPYYYWGQGTQVTVSS,low polyreactivity
22,QVQLVESGGGLVQAGGSLRLSCAASGFIFLYYAMGWYIQAPGKERELVAAITTRGGRTYYADSVKGRFTISRDNAKNTVYLQMNSLKPEDTAVYYCAADHLYWGLEYESWGQGTQVTVSS,low polyreactivity

row,Sequence,polyreactivity (PSR sort gate)
1,QVQLVESGGGLVQAGGSLRLSCAASGFIFNAYAMGWYRQAPGKERELVAAISTRGSNTYYADSVKGRFTISRDNAKNTVYLQMNSLKPEDTAVYDCAARGYVTYSKSNYWGQGTQVTVSS,high polyreactivity
2,QVQLVESGGGLVQAGGSLRLSCAASGFIFNIYAMGWYRQAPGKERELVAAITDDGSTNYADSVKGRFTISRDNAKNTVYLQMNSLKPEDTAVYYCAADDYYKFDYWGQGTQVTVSS,low polyreactivity
3,QVQLVESGGGLVQAGGSLRLSCAASGFIFNLYAMGWYRQAPGKEREFVAGISYSGNTYYADSVKGRFTISRDNAKNTVYLQMNSLKPEDTAVYYCAARRGYNDGYWGQGTKVTVSS,high polyreactivity
4,QVQLVESGGGLVQAGGSLRLSCAASGFIFNRNAMGWYRQAPGKERELVAGINSGGTTKYADSVKGRFTISRDNAKNTVYLQMNSLKPEDTAVYYCNRDWWWDHGRWYRTSRYDYWGQGTQVTVSS,low polyreactivity
5,QVQLVESGGGLVQAGGSLRLSCAASGFIFNRYAMGWYRPAPGNERELVATITRRGGRTYYADSVKGRFTISRDNAKNTVYLQMNSLKPEDTALYYCNADPNVPVETFDYWGQVTQVTVSS,high polyreactivity
6,QVQLVESGGGLVQAGGSLRLSCAASGFIFNSNARGWYRQAPGKERELVAAISGLGGSTYYADSVKGRFTISRDNAKNTVYIQMNSLKPEDTAVYYCAADVTYGTKWAYDYWGQGTQVTVSS,high polyreactivity
7,QVQLVESGGGLVQAGGSLRLSCAASGFIFNVNAMGWYRQAPGKERELVAAITGGGGSTYYADSVKGRFTISRDNAKNTVYLQMNSLKPEDTAVYYCARGRTIRSSRTGGSWGQGTQVTVSS,high polyreactivity
8,QVQLVESGGGLVQAGGSLRLSCAASGFIFNWYAMGWYRQAPGKERELVAAITSGGSTNYADSVKGRFTISRDNAKNTVYLQMNSLKTEDTAVYYCAARHWRRYGYWGQGTQVTVSS,high polyreactivity
9,QVQLVESGGGLVQAGGSLRLSCAASGFIFNYNAMGWYRQAPGKERELVAAIRTSSGSTYYADSVKGRFTISRDNAKNTVYLQMNSLKPEDTAVYYCGKTRYSTYSPIYYYWGQGTQVTVSS,high polyreactivity
10,QVQLVESGGGLVQAGGSLRLSCAASGFIFNYYTMGWYRQAPGKERELVAVITGGGGSTYYADSVKGRFTISRDNAKNTVYLQMNSLKPEDTAVYYCAAEWFSWGQGTQITVSS,low polyreactivity
11,QVQLVESGGGLVQAGGSLRLSCAASGFIFPANAMGWYRQAPGKEREFVAAISRSGGTTYYADSVKGRFTISRDNAKNTVYLQMNSLKPEDTAVYYCAARYAIGPGYDYWGQGTQVTVSS,high polyreactivity
12,QVQLVESGGGLVQAGGSLRLSCAASGFIFPDYAMGWYRPAPGKERELVAAINRRGSRTYYADSVKGRFTISRDNAKNTVYLQMNSLKPEDTAVYYCNRDVGKVYAVIYDYWGQGTQVTVSS,high polyreactivity
13,QVQLVESGGGLVQAGGSLRLSCAASGFIFPGHAMGWYRQAPGKERELVAAISTSGGSTYYADSVKGRFTISRDNAKNTVYLQMNSLKPEDTAVYYCATKRPYVDDYGYWGQGTQVTVSS,high polyreactivity
14,QVQLVESGGGLVQAGGSLRLSCAASGFIFPIYAMGWYRQEHGKERELVAGISGSGTSTYYADSVKGRFTISLDYAKNTVYLQMNSLKPVDNAVYYCNAKYPWGNYKSVSYDYWGQGTQVTVSS,high polyreactivity
15,QVQLVESGGGLVQAGGSLRLSCAASGFIFPPYAMGWYRQAPGTERELVAAIRISGGSTYYADSVKGRFTISRDNAKNTVYFHLNSLKPEDTAVYYCAARYVSSTPAFAYYYWGQGTQVTVSS,high polyreactivity
16,QVQLVESGGGLVQAGGSLRLSCAASGFIFPPYDMGWYRQAPGKERELVAGISDVGTTYYADSVKGRYTISRDNAKNPVYLQMNSLKPEDSAVYYCAAESQGDDQFWTGGYDSWGQGTQVTVSS,low polyreactivity
17,QVQLVESGGGLVQAGGSLRLSCAASGFIFPPYTMGWYRQAPGKERELVAAINSGGSTYYADSVKGRFTISRDNAKNTVYLPMNSLKPEDTAVYYCAADTDRALAHFDYWGQGTQVTVSS,low polyreactivity
18,QVQLVESGGGLVQAGGSLRLSCAASGFIFPTYAMGWYRQAPGKERELVATITTNAGGTHYADSVKGRFTISRDNAKNTVYLQMNSLKPEDTAVYYCAAKQYRPKQRKYWTRIYDYWGQGTQVTVSS,low polyreactivity
19,QVQLVESGGGLVQAGGSLRLSCAASGFIFPVNARGGSRQAPGKERELHADISSDGSTNYADSVKGRFTISRDNAKNTVYLQMNSLKPEDTAVYYCAREDNLRHQSDSRYDYWGQGTQVTVSS,low polyreactivity
20,QVQLVESGGGLVQAGGSLRLSCAASGFIFPWYTMGWYRQAPGKERELVAVINQSGGSTYYADSVKGRFTISRDNAKNTVYLQMNSLKPEDTAVYYCAAKSYRGSVKLRWSERGYWGQGTQVTVSS,high polyreactivity
21,QVQLVESGGGLVQAGGSLRLSCAASGFIFPYYAMGWYRQAPGKERELVAAISSGGSTYYADSVKGRFTISRDNAKNSVYLQMNSLKPEDTAVYYCAVRITYWTGEFDYWGQGTQVTVSS,high polyreactivity
